{"source": "patent US20220170006A1", "about": "“A PSEUDO-RANDOM DNA EDITOR FOR EFFICIENT AND CONTINUOUS NUCLEOTIDE DIVERSIFICATION IN HUMAN CELLS” (THE BROAD INSTITUTE, INC., priority 2019, published 2022)", "key": {"[1]": {"test_system": "EGFP gene solely under the control of a T7 promoter (pTarget) in HEK293T cells", "test": "EGFP expression from pTarget driven by pEditor variants (T7 RNAP transcriptional activity)", "assay_type": "cell-based, human", "conditions": "HEK293T cells co-transfected with pTarget and pEditor variant; listed as pAPOEBC", "experimental": "Each pEditor variant was introduced into HEK293T cells together with pTarget in which EGFP gene was solely under the control of a T7 promoter. […] Scale bar, 200 μm, which also applies to other micrographs. […] Cells transfected with pTarget and pEditor plasmids were incubated for 3 days before being harvested. pTarget plasmids were extracted and PCR reactions were performed to amplify the target region. Sequencing libraries were prepared using the PCR products and next-generation sequencing was performed. Mutation rates in each group, across different pEditor variants, were calculated.\n(§1) HEK293T cells were obtained from ATCC and were grown in high-glucose (4.5 g/L) DMEM supplemented with GlutaMAX™, 1 mM sodium pyruvate, 10% FBS, 100 units/mL of penicillin and 100 μg/mL of streptomycin in a humidified chamber with 5% CO2 at 37° C. Cells were maintained at ˜80% confluence in 24-well plates on the day of transfection. 250 ng of pTarget and 250 ng of pEditor plasmids were mixed together with 1 μl of TransIT-X2 reagent (Mirus) and the mixture was incubated in 50 μl of Opti-MEM® (Thermo Fisher Scientific™) for 30 min. The mixture was then added drop-wise to each well. […]\nTo test whether fusing a cytidine deaminase to T7 RNAP maintained T7 RNAP activity, pTarget and various pEditor plasmids were transfected into HEK 293T cells and EGFP fluorescence under each condition was measured."}, "[2]": {"test_system": "2000-bp window downstream of a T7 promoter on pTarget in HEK293T cells", "test": "Mutation rates in the 2000-bp window of the pTarget plasmid by high-throughput sequencing", "assay_type": "cell-based, human", "conditions": "cytidine deaminase only", "experimental": "as §1\nTo sequence the targeted region (˜2000 bp) on pTarget, plasmids were extracted from ˜1 million cells using Qiaprep Spin Miniprep Kit. PCR was performed using those plasmids as templates (primer sequences are shown in Table 2 above. Ampure® XP beads (Beckman Coulter™) were added to samples at a 0.8:1 ratio to size select for the pcr'ed fragments. The concentration of each sample was measured by Qubit™ (Thermo Fisher Scientific™). 1 ng of DNA at a volume of 2.5 μl from each sample was used as input for the subsequent library preparation. Sequencing library was prepared following the Nextera® XT Kit protocol (Illumina®) except that half the amount of each reagent was used. To sequence the targeted loci, genomic DNA was extracted from ˜1 million cells using the Quick-DNA™ Kit (Zymo Research™). […]"}}}
{"molecule": "pAPOBEC: control plasmid expressing deaminase alone (rat APOBEC1) (protein, UniProt P38483 1-229, looked up) C->U-editing enzyme APOBEC-1: MSSETGPVAVDPTLRRRIEPHEFEVFFDPRELRKETCLLYEINWGGRHSIWRHTSQNTNKHVEVNFIEKFTTERYFCPNTRCSITWFLSWSPCGECSRAITEFLSRYPHVTLFIYIARLYHHADPRNRQGLRDLISSGVTIQIMTEQESGYCWRNFVNYSPSNEAHWPRYPHLWVRLYVLELYCIILGLPPCLNILRRKQPQLTFFTIALQSCHYQRLPPHILWATGLK", "values": [{"measurement": "EGFP expression / EGFP signals", "setting": "[1]", "value": "not"}, {"measurement": "C->T and G->A mutation rates compared with background (pT7) error rates", "setting": "[2]", "value": "not statistically different from the background error rates"}]}
